Key:
Test in all cases: holdup assay
Design in all cases: key: below the threshold = too weak to quantify, mostly under pKd 3.1 to 4
Settings in all cases: plain residues with an end cap or a label only (N-terminal biotin on a linker: ttds)
PTPN4, P29074 = target: T1, PTPN4, P29074
T1 sequence (P29074 512-599, limits assumed, looked up): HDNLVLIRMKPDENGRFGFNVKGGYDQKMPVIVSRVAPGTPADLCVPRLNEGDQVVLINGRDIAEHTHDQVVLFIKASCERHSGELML

MAGI1_3, Q96QZ7 = target: MAGI1_3, Q96QZ7
MAGI3_3, Q5TCQ9 = target: MAGI3_3, Q5TCQ9
RGS3, P49796-9 = target: RGS3, P49796-9
PDLIM4, P50479 = target: PDLIM4, P50479
DVL1, O14640 = target: T2, DVL1, O14640
T2 sequence (O14640 246-333, limits assumed, looked up): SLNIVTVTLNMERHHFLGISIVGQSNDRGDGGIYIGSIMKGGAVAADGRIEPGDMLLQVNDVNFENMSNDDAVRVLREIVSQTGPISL

DLG2_1, Q15700 = target: DLG2_1, Q15700
PDZD7_2, Q9H5P4 = target: T3, PDZD7_2, Q9H5P4
T3 sequence (Q9H5P4 205-303, limits assumed, looked up): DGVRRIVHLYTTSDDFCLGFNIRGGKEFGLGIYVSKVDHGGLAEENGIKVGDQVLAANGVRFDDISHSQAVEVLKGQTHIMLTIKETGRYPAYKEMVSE

GRIP1_1, Q9Y3R0 = target: T4, GRIP1_1, Q9Y3R0
T4 sequence (Q9Y3R0 48-146, limits assumed, looked up): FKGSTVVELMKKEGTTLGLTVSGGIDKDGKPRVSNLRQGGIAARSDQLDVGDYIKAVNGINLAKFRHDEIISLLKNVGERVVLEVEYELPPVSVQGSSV

MAGI3_6, Q5TCQ9 = target: MAGI3_6, Q5TCQ9
LNX2_4, Q8N448 = target: T5, LNX2_4, Q8N448
T5 sequence (Q8N448 595-690, limits assumed, looked up): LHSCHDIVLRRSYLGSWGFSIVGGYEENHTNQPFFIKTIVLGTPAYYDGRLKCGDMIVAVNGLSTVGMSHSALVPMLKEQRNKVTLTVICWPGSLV

TJP1_1, Q07157 = target: TJP1_1, Q07157
RGS12, O14924 = target: T6, RGS12, O14924
T6 sequence (O14924 17-108, limits assumed, looked up): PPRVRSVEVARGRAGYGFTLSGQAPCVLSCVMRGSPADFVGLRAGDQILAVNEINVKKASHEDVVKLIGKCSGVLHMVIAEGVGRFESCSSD

SDCBP_1, O00560 = target: SDCBP_1, O00560
AHNAK2, Q8IVF2 = target: AHNAK2, Q8IVF2
NHERF1_2, O14745 = target: T7, NHERF1_2, O14745
T7 sequence (O14745 149-244, limits assumed, looked up): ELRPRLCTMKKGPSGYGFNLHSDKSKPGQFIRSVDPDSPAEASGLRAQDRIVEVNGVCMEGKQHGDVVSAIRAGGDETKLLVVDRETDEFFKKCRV

PTPN13_4, Q12923 = target: T8, PTPN13_4, Q12923
T8 sequence (Q12923 1783-1878, limits assumed, looked up): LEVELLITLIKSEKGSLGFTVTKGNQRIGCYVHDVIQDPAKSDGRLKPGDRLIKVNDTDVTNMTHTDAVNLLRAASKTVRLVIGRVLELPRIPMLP

PDLIM3, Q53GG5 = target: T9, PDLIM3, Q53GG5
T9 sequence (Q53GG5 1-94, limits assumed, looked up): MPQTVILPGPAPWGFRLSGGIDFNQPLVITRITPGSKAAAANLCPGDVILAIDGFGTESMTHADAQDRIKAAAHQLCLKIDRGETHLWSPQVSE

MAGI2_1, Q86UL8 = target: T10, MAGI2_1, Q86UL8
T10 sequence (Q86UL8 12-111, limits assumed, looked up): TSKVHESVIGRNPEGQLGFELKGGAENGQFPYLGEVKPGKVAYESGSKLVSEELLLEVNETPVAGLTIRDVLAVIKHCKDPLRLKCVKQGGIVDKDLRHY

RIMS1, Q86UR5 = target: RIMS1, Q86UR5
PARD3B_3, Q8TEW8 = target: PARD3B_3, Q8TEW8
APBA3_2, O96018 = target: T11, APBA3_2, O96018
T11 sequence (O96018 480-570, limits assumed, looked up): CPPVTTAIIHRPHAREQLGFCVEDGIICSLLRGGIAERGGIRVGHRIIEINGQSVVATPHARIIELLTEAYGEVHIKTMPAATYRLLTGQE

PDZD2_1, O15018 = target: T12, PDZD2_1, O15018
T12 sequence (O15018 80-192, limits assumed, looked up): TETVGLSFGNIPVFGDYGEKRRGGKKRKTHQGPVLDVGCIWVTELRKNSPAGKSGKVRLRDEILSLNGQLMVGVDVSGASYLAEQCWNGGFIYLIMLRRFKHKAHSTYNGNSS

MLLT4, P55196 = target: T13, MLLT4, P55196
T13 sequence (P55196 1002-1103, limits assumed, looked up): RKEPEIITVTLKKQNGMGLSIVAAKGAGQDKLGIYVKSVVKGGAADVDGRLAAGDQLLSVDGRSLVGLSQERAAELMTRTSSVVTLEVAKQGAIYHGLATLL

PDZRN4_2, Q6ZMN7 = target: PDZRN4_2, Q6ZMN7
PDZRN4_2, Q6ZMN7, sequence (Q6ZMN7 389-498): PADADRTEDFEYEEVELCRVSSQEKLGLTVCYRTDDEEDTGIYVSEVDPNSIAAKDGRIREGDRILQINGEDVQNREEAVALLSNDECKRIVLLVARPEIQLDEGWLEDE

TJP1_1, Q07157, sequence (Q07157 18-120): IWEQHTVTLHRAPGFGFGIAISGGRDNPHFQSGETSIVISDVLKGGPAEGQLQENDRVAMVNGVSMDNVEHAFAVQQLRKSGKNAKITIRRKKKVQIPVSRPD
PDLIM4, P50479, sequence (P50479 1-83): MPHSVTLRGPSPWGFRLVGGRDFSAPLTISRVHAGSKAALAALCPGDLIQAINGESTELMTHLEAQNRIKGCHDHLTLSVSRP
RIMS1, Q86UR5, sequence (Q86UR5 584-692): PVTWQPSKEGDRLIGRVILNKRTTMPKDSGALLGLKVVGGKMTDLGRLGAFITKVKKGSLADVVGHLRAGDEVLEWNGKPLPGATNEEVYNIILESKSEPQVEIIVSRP
MAGI3_6, Q5TCQ9, sequence (Q5TCQ9 1014-1103): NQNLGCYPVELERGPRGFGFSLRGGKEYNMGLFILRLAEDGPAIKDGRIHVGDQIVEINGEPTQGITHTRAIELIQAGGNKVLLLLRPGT
RGS3, P49796-9, sequence (P49796 other isoform, or with tags, fused parts or gaps): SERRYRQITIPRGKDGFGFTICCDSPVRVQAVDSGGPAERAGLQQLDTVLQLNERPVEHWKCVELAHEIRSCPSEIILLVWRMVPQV
SDCBP_1, O00560, sequence (O00560 111-198): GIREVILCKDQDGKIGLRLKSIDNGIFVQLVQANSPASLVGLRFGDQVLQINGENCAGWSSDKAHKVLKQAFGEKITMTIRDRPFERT
PARD3B_3, Q8TEW8, sequence (Q8TEW8 490-594): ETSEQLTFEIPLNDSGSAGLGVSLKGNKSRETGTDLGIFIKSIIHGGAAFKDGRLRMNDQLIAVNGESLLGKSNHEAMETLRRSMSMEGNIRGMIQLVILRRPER
MAGI1_3, Q96QZ7, sequence (Q96QZ7 638-725): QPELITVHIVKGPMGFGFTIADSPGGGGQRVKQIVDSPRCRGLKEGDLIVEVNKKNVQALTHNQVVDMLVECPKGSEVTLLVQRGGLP
MAGI3_3, Q5TCQ9, sequence (Q5TCQ9 572-655): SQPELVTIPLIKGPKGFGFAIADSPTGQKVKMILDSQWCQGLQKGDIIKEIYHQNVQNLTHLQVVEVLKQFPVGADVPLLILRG
AHNAK2, Q8IVF2, sequence (Q8IVF2 108-193): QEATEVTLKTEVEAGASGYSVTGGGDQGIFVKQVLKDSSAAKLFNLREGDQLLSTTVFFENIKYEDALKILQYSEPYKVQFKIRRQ

B1: RALBP1, Q15311 (peptide)
chain: PSRDRKETSI
pKd (PTPN4, P29074): 3.83 | pKd (MAGI1_3, Q96QZ7): below the threshold | pKd (MAGI3_3, Q5TCQ9): below the threshold | pKd (RGS3, P49796-9): below the threshold | pKd (PDLIM4, P50479): below the threshold | pKd (DVL1, O14640): below the threshold | pKd (DLG2_1, Q15700): 4.34 | pKd (PDZD7_2, Q9H5P4): below the threshold | pKd (GRIP1_1, Q9Y3R0): below the threshold | pKd (MAGI3_6, Q5TCQ9): below the threshold | pKd (LNX2_4, Q8N448): below the threshold | pKd (TJP1_1, Q07157): below the threshold | pKd (RGS12, O14924): below the threshold | pKd (SDCBP_1, O00560): below the threshold | pKd (AHNAK2, Q8IVF2): below the threshold | pKd (NHERF1_2, O14745): below the threshold | pKd (PTPN13_4, Q12923): below the threshold | pKd (PDLIM3, Q53GG5): below the threshold | pKd (MAGI2_1, Q86UL8): 3.74 | pKd (RIMS1, Q86UR5): below the threshold | pKd (PARD3B_3, Q8TEW8): below the threshold | pKd (APBA3_2, O96018): below the threshold | pKd (PDZD2_1, O15018): below the threshold | pKd (MLLT4, P55196): below the threshold | pKd (PDZRN4_2, Q6ZMN7): below the threshold

Source: article PMC9482650, “Quantitative fragmentomics allow affinity mapping of interactomes” (Nature Communications, 2022)
